# According to PMC4877013:
# What was measured:
# [1] = biological target: major histocompatibility complex class II of H-2^d (A^d) on macrophages of Balb/c mice (mouse (endogenous in Balb/c peritoneal macrophages)); assay: flow cytometry on cells; as a1, but L. donovani infected macrophages (I-MΦ) of Balb/c mice
# [2] = biological target: major histocompatibility complex class II of H-2^d (A^d) on macrophages of Balb/c mice (mouse (endogenous in Balb/c peritoneal macrophages))
substance,measurement,setting,value
"LACK_(156-173) peptide (amino acid residues 156–173 of LACK protein, Leishmania homolog of receptors for activated C-kinase)",MFI of LACK (156-173)-A^d at '0' h in I-MΦ against N-MΦ,[1],30 % less
same,"rate of decrease of IL-2 production by anti-LACK T cell hybridoma LMR7.5 cocultured with peptide pulsed, fixed I-MΦ (0 to 12 h after the pulse)",[2],17.1
same,"rate of decrease of IL-2 production by anti-LACK T cell hybridoma LMR7.5 cocultured with peptide pulsed, fixed I-MΦ-AL (0 to 12 h after the pulse)",[2],15.8
same,"rate of decrease of IL-2 production by anti-LACK T cell hybridoma LMR7.5 cocultured with peptide pulsed, fixed N-MΦ (0 to 12 h after the pulse)",[2],1.29
